Assays:
CrkL SH2 domain, 9-108 = CrkL SH2 domain, 9-108 (UniProt P46109); experiment: GST pull-down from infected-cell lysate, anti-Tir blot; conditions: reference: WT Tir (Δtir EPEC + ptir); sites Y474
CrkII SH2 domain, 1-124 = CrkII SH2 domain, 1-124 (UniProt Q64010); experiment: as above; conditions: reference: WT Tir (Δtir EPEC + ptir); sites Y474

## Tir (translocated intimin receptor) (from UniProt B7UM99) Tir Y474F (Δtir EPEC + ptirY474F)
CrkL SH2 domain, 9-108
  binding against the reference: lost
CrkII SH2 domain, 1-124
  binding against the reference: lost
